{"source": "paper doi:10.1101/2025.07.08.663703", "about": "“Recruitment of Mre11 to recombination sites during meiosis” (bioRxiv, 2025)", "binders": {"B1": {"name": "synthetic Mre11-SIM3 peptide, wild type (peptide)", "chain": "ENDIIMVSTDE"}}, "molecular_target": "T1, yeast Smt3 (Smt3 6xHis) (yeast, UniProt Q12306 1-101 = SUMO)", "T1 construct": "Smt3 (SUMO), yeast; Uniformly 13C,15N labelled for the NMR experiments; also called SUMO; U-[13C,15N]; Smt3; source: E. coli BL21 (DE3)pLysS, purified (Ni-NTA)", "T1 sequence (Q12306 whole entry)": "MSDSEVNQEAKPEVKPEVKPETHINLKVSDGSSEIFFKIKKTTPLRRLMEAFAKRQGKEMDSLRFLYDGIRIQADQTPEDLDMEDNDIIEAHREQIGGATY", "experiment": "ITC; 2 mM peptide in the syringe, 150 μM or 300 μM Smt3 in the cell; 20 mM NaPi 100 mM NaCl pH 7.5, 10% DMSO, 25°C; single binding site model", "settings": "both partners purified", "data": [{"binder": "B1", "values": [{"measurement": "Kd", "result": "20 ± 10", "unit": "µM"}]}]}
